According to US20210388087A1:
Positions count from the first letter of the chain named. In names and notes the source's numbering stands. Each block holds one binder with its values, some of them ahead of it.

Biological target: Human CD137 ECD (human)
Assay: SPR, vs parent H183/L072

Human CD137 ECD (human), sequence (chain, as listed by the source limits assumed): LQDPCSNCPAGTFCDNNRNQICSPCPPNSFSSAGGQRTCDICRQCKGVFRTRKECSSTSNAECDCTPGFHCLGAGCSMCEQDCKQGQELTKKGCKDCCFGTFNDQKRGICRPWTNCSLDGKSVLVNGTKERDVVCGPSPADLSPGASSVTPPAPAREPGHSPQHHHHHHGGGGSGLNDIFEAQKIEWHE

B1: dBBDu183H A98N / dBBDu072L (antibody, name in Kabat numbering, V domains shown)
VH: QVQLVESGGGLVQPGRSLRLSCAASGFTFSNAWMHWVRQAPGKGLEWVAQIKDKGNAYAAYYAPSVKGRFTISRDDSKNSIYLQMNSLKTEDTAVYYCHYVHYNSASTVLPAFGVDAWGQGTTVTVSS
VL: DIVMTQSPLSLPVTPGEPASISCQASQELVHMNRNTYLHWYQQKPGQAPRLLIYKVSNRFPGVPDRFSGSGSGTDFTLKISRVEAEDVGVYYCAQGTSVPFTFGQGTKLEIK
- fold change of affinity: 0 fold

B3: dBBDu183H F100gN / dBBDu072L (antibody, name in Kabat numbering, V domains shown)
VH: B1 VH with N104A, F113N
VL: B1 VL
- fold change of affinity: 0 fold

B6: dBBDu183H H93Q / dBBDu072L (antibody, name in Kabat numbering, V domains shown)
VH: B1 VH with H99Q, N104A
VL: B1 VL
- fold change of affinity: 0 fold

B7: dBBDu183H A100fN / dBBDu072L (antibody, name in Kabat numbering, V domains shown)
VH: B1 VH with N104A, A112N
VL: B1 VL
- fold change of affinity: 0 fold

B8: dBBDu183H A102N / dBBDu072L (antibody, name in Kabat numbering, V domains shown)
VH: B1 VH with N104A, A117N
VL: B1 VL
- fold change of affinity: 0 fold

B9: dBBDu183H A100fQ / dBBDu072L (antibody, name in Kabat numbering, V domains shown)
VH: B1 VH with N104A, A112Q
VL: B1 VL
- fold change of affinity: 0 fold

B10: dBBDu183H G100hN / dBBDu072L (antibody, name in Kabat numbering, V domains shown)
VH: B1 VH with N104A, G114N
VL: B1 VL
- fold change of affinity: 0 fold

B11: dBBDu183H H96Q / dBBDu072L (antibody, name in Kabat numbering, V domains shown)
VH: B1 VH with H102Q, N104A
VL: B1 VL
- fold change of affinity: 0 fold

B12: dBBDu183H G100hQ / dBBDu072L (antibody, name in Kabat numbering, V domains shown)
VH: B1 VH with N104A, G114Q
VL: B1 VL
- fold change of affinity: 0 fold

B13: dBBDu183H A98Q / dBBDu072L (antibody, name in Kabat numbering, V domains shown)
VH: B1 VH with N104Q
VL: B1 VL
- fold change of affinity: 0 fold

B15: dBBDu183H L100dN / dBBDu072L (antibody, name in Kabat numbering, V domains shown)
VH: B1 VH with N104A, L110N
VL: B1 VL
- fold change of affinity: 0 fold

Next, values leading:

- fold change of affinity: 0 fold
B2: dBBDu183H S100aN / dBBDu072L (antibody, name in Kabat numbering, V domains shown)
VH: B1 VH with N104A, S107N
VL: B1 VL

- fold change of affinity: 0 fold
B4: dBBDu183H V100cN / dBBDu072L (antibody, name in Kabat numbering, V domains shown)
VH: B1 VH with N104A, V109N
VL: B1 VL

- fold change of affinity: 0 fold
B5: dBBDu183H V95Q / dBBDu072L (antibody, name in Kabat numbering, V domains shown)
VH: B1 VH with V101Q, N104A
VL: B1 VL

- fold change of affinity: 0 fold
B14: dBBDu183H Y97Q / dBBDu072L (antibody, name in Kabat numbering, V domains shown)
VH: B1 VH with Y103Q, N104A
VL: B1 VL

- fold change of affinity: 0 fold
B16: dBBDu183H S100aQ / dBBDu072L (antibody, name in Kabat numbering, V domains shown)
VH: B1 VH with N104A, S107Q
VL: B1 VL

- fold change of affinity: 0 fold
B17: dBBDu183H S99N / dBBDu072L (antibody, name in Kabat numbering, V domains shown)
VH: B1 VH with N104A, S105N
VL: B1 VL

- fold change of affinity: 0 fold
B18: dBBDu183H V100iN / dBBDu072L (antibody, name in Kabat numbering, V domains shown)
VH: B1 VH with N104A, V115N
VL: B1 VL
